These results are taken from US20200347137A1 (SYSTIMMUNE, published 2020).

Changes are numbered by the printed parent chain.

Assay [1] has as its target T1, PD-1 antigen expressed on the surface of cells (human, UniProt Q15116 25-288).
T1 construct: whole, on cells; also called PD-1 receptor; CHO cell line expressing PD-1 antigen
The assay can be described thus: Flow cytometry on CHO cells expressing PD-1, Alexa Fluor 647 anti-human secondary. Here is the method:
(§1) Binding of the bispecific antibodies and their components to PD-1 antigen expressed on the surface of CHO cell line was assessed using FACS method. The bispecific antibodies were incubated with CHO cell line expressing PD-1 antigen and then detected with secondary anti-human antibodies directly conjugated to Alexa Fluor 647 fluorochrome. Cellular binding of the test antibodies was analyzed on a flow cytometer BD LSRFortessa.

The target in assay [2] is T1, PD-1 antigen expressed on the surface …. The assay can be described thus: Flow cytometry on CHO cells expressing PD-1, Alexa Fluor 647 anti-human secondary. The value is printed beside the curves without a name; the text speaks of a KD. It is assigned to the lower, right curve (triangles) by its position. Here is the method:
as §1
For orientation: In flow cytometry, cells or beads pass a laser one at a time.

The target of assay [3] is T2, PD-L1 recombinant protein (human, UniProt Q9NZQ7 19-238, limits assumed).
T2 construct: also called PD-L1 antigen
T2 sequence (Q9NZQ7 19-238 limits assumed): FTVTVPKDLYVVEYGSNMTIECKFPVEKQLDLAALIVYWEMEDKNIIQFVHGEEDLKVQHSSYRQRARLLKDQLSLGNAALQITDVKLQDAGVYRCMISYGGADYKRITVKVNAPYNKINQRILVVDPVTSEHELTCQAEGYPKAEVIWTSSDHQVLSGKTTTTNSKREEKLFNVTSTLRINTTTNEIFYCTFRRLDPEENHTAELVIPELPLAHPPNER
The assay can be described thus: ForteBio Octet RED96, PD-L1 immobilised, antibody in solution. The source says: The antigen was immobilized on the sensor chip surface and the tested antibodies were flown over the immobilized antigens.
(In BLI a coated tip is dipped into the sample, and binding shifts an interference pattern.)

The target of assay [4] is PD-L1 on CHO-PD-L1 cell line (human, UniProt Q9NZQ7 19-290). The assay can be described thus: cell-based or functional assay.
PD-L1 on CHO-PD-L1 cell line, sequence (Q9NZQ7 19-290): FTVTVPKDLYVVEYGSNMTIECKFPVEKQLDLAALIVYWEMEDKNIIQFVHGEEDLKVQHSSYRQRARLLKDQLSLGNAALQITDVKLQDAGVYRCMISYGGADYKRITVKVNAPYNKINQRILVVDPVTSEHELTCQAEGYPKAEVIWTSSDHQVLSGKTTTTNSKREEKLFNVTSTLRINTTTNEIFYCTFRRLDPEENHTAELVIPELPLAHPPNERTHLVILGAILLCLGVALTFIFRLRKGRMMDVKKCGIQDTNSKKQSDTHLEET

T1 sequence (Q15116 25-288): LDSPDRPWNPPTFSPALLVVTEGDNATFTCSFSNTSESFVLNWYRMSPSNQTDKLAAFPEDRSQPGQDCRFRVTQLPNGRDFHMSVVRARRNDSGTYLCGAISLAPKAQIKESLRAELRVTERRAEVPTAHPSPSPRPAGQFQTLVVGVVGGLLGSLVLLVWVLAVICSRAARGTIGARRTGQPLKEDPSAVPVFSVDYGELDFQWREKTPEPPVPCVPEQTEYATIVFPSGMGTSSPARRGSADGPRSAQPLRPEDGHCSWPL

B1: Fc-PD224D1 scFv IgG1 null (Fc fusion, not shown: a dimerising Fc or GST; small tags and cut ends)
scFv: EVQLVESGGGLVQPGGSLRLSCTASGFSLSSYAMSWVRQAPGKGLEYIGYIGDTTGIAYASWANGRFTISKDNTKNTVDLQMNSLRAEDTAVYYCARGWSYLDIWGQGTLVTVSSGGGGSGGGGSGGGGSGGGGSALVMTQSPSSLSASVGDRVTITCQASQNIYSNLAWYQQKPGKVPKLLIYQASTLASGVPSRFSGSGYGTDFTLTISSLQPEDVATYYCQGGYYSAALNTFGGGTKVEIK
notes: a component control of the bispecific antibody
As for B1, the “EC50 (read off the curve)” value in assay [1] was approximately 1 nM. In assay [2], this molecule came in with a Kd of 1.04 nM.

B2: PL004B9 mAb (antibody, V domains shown)
VH: EVQLVESGGGLVQPGGSLRLSCTVSGIDLSVINMGWVRQAPGKGLEWIGTITYVGNTYYASWAKGRFTISKTSTTVDLKITSPTTEDTAVYYCARESGTIYYSYFNLWGQGTLVTVSS
VL: AFELTQSPSSLSASVGDRVTIKCQASESISNYLSWYQQIPGKVPKLLIYYASNLASGVPSRFSGSGSGTDFTLTISSLQPEDVATYYCQSYYGGGSAYTFGGGTKVEIK
notes: Anti-PD-L1 clone tested in mAb format
For the molecule B2, in assay [3], the Kd amounted to 1.37 nM, the dissociation rate constant (koff) was determined as 0.000695 s⁻¹ and the kon came out at 508000 M⁻¹ s⁻¹.

B3: PL230C6 mAb (antibody, V domains shown)
VH: QSVEESGGGLVQPGGSLRLSCTASGIDLNTYDMIWVRQAPGKGLEWVGIITYSGSRYYANWAKGRFTISKDNTKNTVYLQMNSLRAEDTAVYYCARDYMSGSHLWGQGTLVTVSS
VL: AYDMTQSPSSVSASVGDRVTIKCQASEDIYSFLAWYQQKPGKAPKLLIHSASSLASGVPSRFSGSGSGTDFTLTISSLQPEDFATYYCQQGYGKNNVDNAFGGGTKVEIK
notes: also called PL23006
Regarding B3, in assay [3], the Kd is 0.769 nM, the koff was 0.000468 s⁻¹ and the kon was 609000 M⁻¹ s⁻¹.

B4: PL231H2 mAb (antibody, V domains shown)
VH: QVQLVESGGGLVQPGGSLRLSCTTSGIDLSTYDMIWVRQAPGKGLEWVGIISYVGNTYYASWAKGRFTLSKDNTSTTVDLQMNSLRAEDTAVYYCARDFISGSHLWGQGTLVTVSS
VL: B3 VL with K22N, D28S, Y30S, A34S, H49F, S53T, G93S, N95S
notes: as for B2
Regarding B4, in assay [3], the Kd was 0.781 nM, the koff was 0.000391 s⁻¹ and the kon was 501000 M⁻¹ s⁻¹.

B5: PL221G5 Fc-scFv (Fc fusion)
scFv: EVQLLESGGGLVQPGGSLRLSCAASGFSFSSGYDMCWVRQAPGKGLEWIACIAAGSAGITYDANWAKGRFTISRDNSKNTLYLQMNSLRAEDTAVYYCARSAFSFDYAMDLWGQGTLVTVSSGGGGSGGGGSGGGGSGGGGSDIQMTQSPSTLSASVGDRVTITCQASQSISSHLNWYQQKPGKAPKLLIYKASTLASGVPSRFSGSGSGTEFTLTISSLQPDDFATYYCQQGYSWGNVDNVFGGGTKVEIK
notes: scFv at the C-terminus of an Fc; The Fc part is not specified; not shown: The Fc part and the linker joining it to the scFv
Regarding B5, in assay [3], the Kd is 0.412 nM, the koff was 0.000171 s⁻¹ and the kon came to 414000 M⁻¹ s⁻¹.

B6: PL004B9 Fc-scFv (Fc fusion, not shown: a dimerising Fc or GST; small tags and cut ends)
scFv: EVQLVESGGGLVQPGGSLRLSCTVSGIDLSVINMGWVRQAPGKGLEWIGTITYVGNTYYASWAKGRFTISKTSTTVDLKITSPTTEDTAVYYCARESGTIYYSYFNLWGQGTLVTVSSGGGGSGGGGSGGGGSGGGGSAFELTQSPSSLSASVGDRVTIKCQASESISNYLSWYQQIPGKVPKLLIYYASNLASGVPSRFSGSGSGTDFTLTISSLQPEDVATYYCQSYYGGGSAYTFGGGTKVEIK
notes: scFv at the C-terminus of an Fc
Consider B6, for which, in assay [3], the Kd is 1.54 nM, the koff turned out to be 0.000471 s⁻¹ and the kon is 307000 M⁻¹ s⁻¹.

B7: PL221G5 IgG1 null (antibody, V domains shown)
VH: EVQLLESGGGLVQPGGSLRLSCAASGFSFSSGYDMCWVRQAPGKGLEWIACIAAGSAGITYDANWAKGRFTISRDNSKNTLYLQMNSLRAEDTAVYYCARSAFSFDYAMDLWGQGTLVTVSS
VL: DIQMTQSPSTLSASVGDRVTITCQASQSISSHLNWYQQKPGKAPKLLIYKASTLASGVPSRFSGSGSGTEFTLTISSLQPDDFATYYCQQGYSWGNVDNVFGGGTKVEIKR
Take B7: the “EC50 (read off the curve), NFAT-luciferase reporter, Jurkat PD-1 cells with CHO-PD-L1 cells” value in assay [4] was approximately 0.3 nM.

B8: PL221G5 mAb (antibody, V domains shown)
VH: B7 VH
VL: DIQMTQSPSTLSASVGDRVTITCQASQSISSHLNWYQQKPGKAPKLLIYKASTLASGVPSRFSGSGSGTEFTLTISSLQPDDFATYYCQQGYSWGNVDNVFGGGTKVEIK
notes: as for B2
Regarding B8, in assay [3], the Kd was 0.483 nM, the koff came out at 0.000276 s⁻¹ and the kon turned out to be 572000 M⁻¹ s⁻¹.

B9: PL230C6 Fc-scFv (Fc fusion)
scFv: QSVEESGGGLVQPGGSLRLSCTASGIDLNTYDMIWVRQAPGKGLEWVGIITYSGSRYYANWAKGRFTISKDNTKNTVYLQMNSLRAEDTAVYYCARDYMSGSHLWGQGTLVTVSSGGGGSGGGGSGGGGSGGGGSAYDMTQSPSSVSASVGDRVTIKCQASEDIYSFLAWYQQKPGKAPKLLIHSASSLASGVPSRFSGSGSGTDFTLTISSLQPEDFATYYCQQGYGKNNVDNAFGGGTKVEIK
notes: scFv at the C-terminus of an Fc; The Fc part is not specified; also called PL23006; not shown: The Fc part and the linker joining it to the scFv
For the molecule B9, in assay [3], the Kd was 0.868 nM, the koff turned out to be 0.000362 s⁻¹ and the kon amounted to 418000 M⁻¹ s⁻¹.

A word on the EC50 (read off the curve): it is the concentration needed to bring the measured effect to its halfway point. Lower therefore signals a more potent agent. Broadly, the Kd is the equilibrium constant for the complex coming apart. Usually koff stands for the rate constant with which the complex falls apart. For orientation: kon means the second-order rate constant of association.
